Measurements published in publication PMC6517596.

Molecular target: KLF4 (Homo sapiens) (UniProt O43474)
Test: DPI-ELISA competition
Details: KLF4 0-150 ng against 80 ng Sp1; 2 pmol DNA; EMSA: 2 ug nuclear extract or 50 ng KLF4, 30 min on ice, 6% native PAGE; DPI-ELISA: 2 pmol biotin-DNA, 2 h; buffer, salt and pH not stated

UniProt O43474, sequence (O43474 whole entry): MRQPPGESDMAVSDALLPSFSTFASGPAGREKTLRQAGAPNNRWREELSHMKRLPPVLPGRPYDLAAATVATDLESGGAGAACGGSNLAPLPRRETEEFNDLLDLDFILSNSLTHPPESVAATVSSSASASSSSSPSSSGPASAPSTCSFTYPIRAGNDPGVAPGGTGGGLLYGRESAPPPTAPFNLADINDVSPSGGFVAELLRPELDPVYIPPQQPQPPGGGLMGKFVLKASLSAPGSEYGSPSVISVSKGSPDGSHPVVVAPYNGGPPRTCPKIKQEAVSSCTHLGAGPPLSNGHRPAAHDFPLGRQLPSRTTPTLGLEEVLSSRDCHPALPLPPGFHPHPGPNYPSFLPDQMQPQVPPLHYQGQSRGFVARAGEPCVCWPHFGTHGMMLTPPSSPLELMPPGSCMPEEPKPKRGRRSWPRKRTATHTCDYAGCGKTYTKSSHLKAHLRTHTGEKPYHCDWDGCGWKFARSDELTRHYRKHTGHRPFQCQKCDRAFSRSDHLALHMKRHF

“GGTCCCAGAGCACGAGCCCCCGCCCCCGGTGGCCCC (double strand) [CPI-17 GC box 2 biotinylated]” showed an IC50 of 29 ng.
